Assay results as given in US6034062A, “Bone morphogenetic protein (BMP)-9 compositions and their uses” (Genetics Institute, Inc., priority 1997, dated 2000).

B1: BMP-4: BMP protein, cytokine in cartilage assay and competing ligand (protein)
chain: SPKHHSQRARKKNKNCRRHSLYVDFSDVGWNDWIVAPPGYQAFYCHGDCPFPLADHLNSTNHAIVQTLVNSVNSSIPKACCVPTELSAISMLYLDEYDKVVLKNYQEMVVEGCGCR
B2: BMP-6: BMP protein, cytokine in cartilage assay and competing ligand (protein)
chain: SASSRRRQQSRNRSTQSQDVARVSSASDYNSSELKTACRKHELYVSFQDLGWQDWIIAPKGYAANYCDGECSFPLNAHMNATNHAIVQTLVHLMNPEYVPKPCCAPTKLNAISVLYFDDNSNVILKKYRNMVVRACGCH
B3: TGF-β2: transforming growth factor β2 (protein)
chain: ALDAAYCFRNVQDNCCLRPLYIDFKRDLGWKWIHEPKGYNANFCAGACPYLWSSDTQHSRVLSLYNTINPEASASPCCVSQDLEPLTILYYIGKTPKIEQLSNMIVKSCKCS
B4: BMP-3: BMP protein used as unlabeled competing ligand (protein)
chain: QWIEPRNCARRYLKVDFADIGWSEWIISPKSFDAYYCSGACQFPMPKSLKPSNHATIQSIVRAVGVVPGIPEPCCVPEKMSSLSILFFDENKNVVLKVYPNMTVESCACR
B5: BMP-5: BMP protein used as unlabeled competing ligand (protein)
chain: AANKRKNQNRNKSSSHQDSSRMSSVGDYNTSEQKQACKKHELYVSFRDLGWQDWIIAPEGYAAFYCDGECSFPLNAHMNATNHAIVQTLVHLMFPDHVPKPCCAPTKLNAISVLYFDDSSNVILKKYRNMVVRSCGCH
B6: BMP-7: BMP protein used as unlabeled competing ligand (protein)
chain: STGSKQRSQNRSKTPKNQEALRMANVAENSSSDQRQACKKHELYVSFRDLGWQDWIIAPEGYAAYYCEGECAFPLNSYMNATNHAIVQTLVHFINPETVPKPCCAPTQLNAISVLYFDDSSNVILKKYRNMVVRACGCH
B7: BMP-12: BMP protein used as unlabeled competing ligand (protein, UniProt Q7Z4P5 322-450, looked up)
Growth/differentiation factor …: TALAGTRTAQGSGGGAGRGHGRRGRSRCSRKPLHVDFKELGWDDWIIAPLDYEAYHCEGLCDFPLRSHLEPTNHAIIQTLLNSMAPDAAPASCCVPARLSPISILYIDAANNVVYKQYEDMVVEACGCR

These molecules were tested on Articular cartilage explants from calf carpal joints (assay: Articular cartilage assay (proteoglycan synthesis, sulfate incorporation)). Settings: 100 ng/ml, calf articular cartilage explants.
Type: cell-based
Method: The effect of BMP-9 on articular cartilage proteoglycan and DNA synthesis is assayed to determine if BMP-9 is involved in the regulation of metabolism of differentiated articular cartilage.
Articular cartilage explants from calf carpal joints are maintained in DMEM with 50 μg/ml ascorbate, 4 mM glutamine and antibiotics for 3 days. Cytokines (rhBMP-2, rhBMP-4, rhBMP-6 and rhBMP-9, IGF-1, bFGF (1-1000 ng/ml), and TGFβ (1-100 ng/ml)) are added to the medium and culture is continued for 3 more days. Medium is changed daily. Twenty-four hours prior to harvest, explants are pulsed with 50 μCi/ml ^35 SO4 or 25 μCi/ml ^3 H-thymidine. Explants are solubilized and separation of free isotope is performed by gel chromatography. Total DNA of each explant is measured by a spectrophotometric assay.
For B1, the proteoglycan synthesis was “significantly more active in stimulating proteoglycan synthesis”. With B2 the proteoglycan synthesis was “significantly more active in stimulating proteoglycan synthesis”.

What follows are molecules tested on BMP-9 receptors expressed on HepG2 cells (assay: 125I-BMP-9 binding to HepG2 cells). Settings: HepG2 cells, 125I-BMP-9 and 250-fold excess of unlabeled ligand.
Method: BMP-9 responsiveness in parenchymal liver cells is tested by screening four liver cell lines for their ability to bind iodinated, CHO-derived BMP-9. […] Specific binding of BMP-9 to HepG2 cells is carried out by incubating HepG2 cells grown to confluence in Dulbecco's Modified Eagle's Medium (DME) containing 10% heat-inactivated fetal calf serum (FCS) on gelatinized 6 well plates with 2 ng/ml ^125 I-BMP-9 and increasing concentrations of unlabelled BMP-9 in binding buffer (136.9 mM NaCl, 5.37 mM KCl, 1.26 mM CaCl2, 0.64 mM MgSO4, 0.34 mM Na2 HPO4, 0.44 mM KH2 PO4, 0.49 mM MgCl2, 25 mM HEPES and 0.5% BSA, pH 7.4) for 20 hours at 4° C. to achieve binding equilibrium. This incubation follows a one hour preincubation at 37° C. in binding buffer alone. For crosslinking experiments, the cells were incubated with 500 μM disuccinimidyl suberate for 20 minutes at […] following binding. Cell extracts were analyzed on SDS-PAGE. […] To test the binding specificity of the receptors for BMP-9, HepG2 cells were incubated with ^125 I-BMP-9 and a 250-fold excess of different unlabeled ligands.
B1 was tested, and the “crossreactivity of BMP-9 receptors with unlabeled ligand” value (“crossreactivity of BMP-9 receptors” below) was “limited crossreactivity”. In the case of B2, the “crossreactivity of BMP-9 receptors” value is reported as “no crossreactivity”. For B3, the “crossreactivity of BMP-9 receptors” value was “no crossreactivity”. In the case of B4, the “crossreactivity of BMP-9 receptors” value is reported as “no crossreactivity”. With B5 the “crossreactivity of BMP-9 receptors” value was “no crossreactivity”. For B6, the “crossreactivity of BMP-9 receptors” value was “no crossreactivity”. With B7 the “crossreactivity of BMP-9 receptors” value was “no crossreactivity”.
